Key:
[1] = target: T1, MqsA (Escherichia coli K-12 MG1655) (UniProt Q46864); experiment: EMSA; settings: EMSA: 0.25 pmol biotin probe, MqsA titration, 6% polyacrylamide gel in TBE, buffer not given, footprinting: 200 ng FAM probe, 30 min, 25 C
T1 sequence: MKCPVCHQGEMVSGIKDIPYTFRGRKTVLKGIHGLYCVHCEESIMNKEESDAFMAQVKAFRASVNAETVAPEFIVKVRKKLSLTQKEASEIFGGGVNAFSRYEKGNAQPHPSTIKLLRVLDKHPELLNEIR

[2] = target: T1, MqsA (Escherichia coli K-12 MG1655); experiment: DNase I footprinting; settings: EMSA: 0.25 pmol biotin probe, MqsA titration, 6% polyacrylamide gel in TBE, buffer not given, footprinting: 200 ng FAM probe, 30 min, 25 C

Sequence	binding [1]	binding [2]
CTGGCGTATGAGGTAATAAAGCGCGTTTGGGAAGGTGAAATGTTGCTGGTAAATGATTCGGAGTCAGCGGGGGAAGGTGTCGGTGCGGATGCCTGACCTGTGGATATAGCGGTTAAAACCTTCACCGGCGTCCGGTTCAAAGTTCCATGCCCGCCAACCATCCGACCTTCGGCATCACGAACTATCAGGCGGACGTGAATGCCCTGGTTTGTGTCAATGTTAATGTCGGTGATACCGGCAGATACCAGTGGCCCTGCTACGCAATC (double strand) [lfgA promoter mutant probe 2 (MP2)]	no binding	
CTGGCGTATGAGGTAATAAAGCGCGTTTGGGAAGGTGAAATGTTGCTGGTAAATGATTCGGAGTCAGCGGGGGAAGGTGTCGGTGCGGATGCCTGACCTGTGGATATAGCGGTTAAAACCTTCTTTTGCGTCATTATCAAAGTTCCATGCCCGCCAACCATCCGACCTTCGGCATCACGAACTATCAGGCGGACGTGAATGCCCTGGTCGTCTTCAATGTTAATGTCGGTGATACCGGCAGATACCAGTGGCCCTGCTACGCAATC (double strand) [lfgA promoter mutant probe 1 (MP)]	binds	
GATTGCGTAGCAGGGCCACTGGTATCTGCCGGTATCACCGACATTAACATTGAAGACGACCAGGGCATTCACGTCCGCCTGATAGTTCGTGATGCCGAAGGTCGGATGGTTGGCGGGCATGGAACTTTGAACCGGACGCCGGTGAAGGTTTTAACCGCTATATCCACAGGTCAGGCATCCGCACCGACACCTTCCCCCGCTGACTCCGAATCATTTACCAGCAACATTTCACCTTCCCAAACGCGCTTTATTACCTCATACGCCAG (double strand) [FAM-lfgA (yfjY) promoter footprint probe]		binds
GATTGCGTAGCAGGGCCACTGGTATCTGCCGGTATCACCGACATTAACATTGAAGACGACCAGGGCATTCACGTCCGCCTGATAGTTCGTGATGCCGAAGGTCGGATGGTTGGCGGGCATGGAACTTTGAACCGGACGCCGGTGAAGGTTTTAACCGCTATATCCACAGGTCAGGCATCCGCACCGACACCTTCCCCCGCTGACTCCGAATCATTTACCAGCAACATTTCACCTTCCCAAACGCGCTTTATTACCTCATACGCCAG (double strand) [lfgA (yfjY) promoter WT probe]	binds	

— paper PMC10846083
